Assay results as given in patent publication US20220073643A1 (NANJING GENSCRIPT BIOTECH, published 2022).
Where a chain is given by its changes, count along the chain named.

B1: 252C10F6 (antibody, V domains shown)
VH: QVHLKQSGRGLVQPSQSLSITCTVSGFSLPNYGVHWVRQPPGKGLEWLGVIWSGGNTDYNTVFKARLSITKDNSKSQVFFKMNSLQADDTAIYYCARNLYGNYDYAMDYWGQGTSVTVSS
VL: DIVMTQSPATLSVTPGDRVSLSCRASQSISDYLHWYQQKSHESPRLLIKYASQSISGIPSRFSGSGSGSEFTLSINSVEPEDVGVYYCQNGHSFPFTFGSGTKLEIK
notes: mouse hybridoma mAb
B2: 231C11E9 (antibody, V domains shown)
VH: EVMLVESGGGLVKPGGSLKLSCAASGFTFNNYVMCWVRQTPEKRLEWVATISSGNFYTYYPDSVKGRFTISRDNAKNTLYLQMSSLRSEDTAIYYCASLGRGNALDNWGQGTSVTVSS
VL: DIVMTQSPASLTVTAKEKVTMSCRSSQSLLNSGNQKNYLTWYQQKPGQPPKLLIYWASTRESGVPDRFTGSGSGTDFTLTISSVQAEDLAVYYCQNDYSYPFTFGSGTKLEIK
notes: mouse hybridoma mAb
B3: 246B5F2 (IgM) (antibody, V domains shown)
VH: EVMLVESGGGLMKPGGSLKLSCAASEFTFSNYAMSWVRQTPEKRLEWVATISSGRSSTYYPDSVKGRFTISRDNAKNTLYLQMSSLRSEDTAMYYCAGLGRGNAMEYWGQGTSVTVSS
VL: B2 VL with A9S, K16G, M21L, R24K, T78I, S82N, D97A
notes: mouse hybridoma mAb, IgM
B4: 242F5H2 (antibody, V domains shown)
VH: EVMLVESGGGLVKPGGSLKLSCAASGFTFSSYTVSWVRQTPEKRLEWVATSIVGSTYTYFPDSVKGRFTISRDFAKNTLFLQMSSLRSEDTAMYYCSRLGRGNAMDYWGQGTSVSVSS
VL: B2 VL with A9S, K16G, M21L, S22N, E87D, D97G
notes: mouse hybridoma mAb
B5: 254A8D5 (antibody, V domains shown)
VH: B4 VH
VL: B2 VL with A9S, K16G, M21L, S22N, E87D, D97G
notes: mouse hybridoma mAb
B6: 248E6A7 (antibody, V domains shown)
VH: QAYLQQSGAELVRSGASVKMSCRASGYTFTSHNMHWVKQTPGQGLEWIGYIYPGNGNTYYNQKFKVKATLTADTSSNTAYMQINSLTSEDSAVYFCVRDYYGNSFVYWGQGTLVTVSA
VL: DVVMTQSPSSLTEKTGEKVTMTCKSSQSLLNSGNQKNYLAWYQQKPGQPPKLLIYWASTRESGVPDRFIGSGSGTDFTLTISSLQTEDLAVYYCQNNYMYPFTFGAGTKLELK
notes: mouse hybridoma mAb
B7: 252E7C9 (antibody, V domains shown)
VH: B6 VH with A2T, A24T, T28S, N57G, T58S, V66G, T69I, N77S, N84S, V97T
VL: B6 VL with T20S, T22S, A40T, I69T, V91I, Y98F, M99R
notes: mouse hybridoma mAb
B8: 260F8A6 (antibody, V domains shown)
VH: B6 VH with V66G
VL: B6 VL with T20S, T22S, A40T
notes: mouse hybridoma mAb
B9: 194A2F7 (antibody, V domains shown)
VH: QIQLVQSGPELKKPGETVKISCKASGYTFTDYLIHWVKQAPGKGLKWMGWINTETGEPTYADDFKGRFALSLETSASTACLQINNLKNEDTATYFCARIYYGNSFDYWGQGTTLTVSS
VL: DIVMTQSPSSLPVTAGEKVTMTCKSSQNLLNSGNQKSYLTWYQQKPGQPPKLLIYWASTRETGVPDRFTGSGSGTDFTLTISSVQAEDLAVYYCQNAYRFPFTFGAGTRLELK
notes: mouse hybridoma mAb
B10: 196A12B10 (antibody, V domains shown)
VH: QIQWVQSGPELKKPRETVKISCKASGYTFTDYSMHWVKQAPGKGLKWMGWINSETGEATYADDFRGRFALSLETSATTAFLQINSLKNEDTGTYFCARFYYGNSFASWGQGTTLTVSS
VL: DIVMTQFPSSLTVTAGEKVTMTCKSSQSLLNGGNQKNYLTWYQQKPGLPPKLLIYWASTRESGVPDRFTGSGSGTEFTLTISSVQAEDLAVYYCQNNYYFPLTFGAGTKLELK
notes: mouse hybridoma mAb; also called 196Al2B10
B11: 232F1E4 (antibody, V domains shown)
VH: QVQLKESGPGLVAPSQSLSITCTVSGFALTTYGVSWVRQPPGKGLEWLGVIWGDGSTHYHSALISRLSIRKDNSKSQVFLKLNSLQTDDTATYYCAKPGRGNAMDYWGQGTSVTVSS
VL: DIVMSQSPSSLTVTAGEKVTMSCKSSQSLLNSGNQKNYLTWYQQKPGQSPKLLIYWASTRESGVPDRFTGSGSGTDFTLTISSMQAEDLAVYYCQNDYIYPLTFGAGTMLELK
notes: mouse hybridoma mAb
B12: 248G8E8 (antibody, V domains shown)
VH: B11 VH with A28S, H58N, A62T, S68R, R70S, N73K, P98A, M104L
VL: B11 VL with M4L, S5T, S49P, M84V, I99S, Y100F, M109K
notes: mouse hybridoma mAb
B13: 262C7C10 (antibody, V domains shown)
VH: QAYLQQSGAELVRSGASVKMSCKASGYTFTNYNIHWVKQTPGQGLEWIGYIYPGNGGNYYNQKFKGKATLTADTSSITAYMQISSLTSEDSAVYFCARDYYGNSFAYWGQGTLVTVSA
VL: B11 VL with S5T, S22N, S49P, M84V, V91I, I99Y, M109K
notes: mouse hybridoma mAb
B14: 203A6D5 (antibody, V domains shown)
VH: QVQLKQSGPGLVQPSQSLSITCTVSGFSLTRYGVHWVRQSPGKGLEWLGVIWSGGNTDYNAAFISRLNIRKDNSKSQVFFKMNSLKPNDTAIYYCARAAYFGNSFDYWGQGTTLTVSS
VL: B11 VL with S5T, T12P, S49P, E61D, M84V, D97N, M109K
notes: mouse hybridoma mAb
B15: 292D9C7 (antibody, V domains shown)
VH: QVQLKESGPGLVAPSQSLSITCTVSGFSLTDYGVSWIRQPPGKGLEWLGVIWGGGNAYYNSALKSRLSISKDNSKSQVFLKMNSLRTDDTAMYYCAKNGLLRYLDYWGQGSTLTVSS
VL: B11 VL with I2T, S5T, S49P, T75R, M84V, A86V, V91I, I99Y, M109K, L110V
notes: mouse hybridoma mAb
B16: 186G12H3 (antibody, V domains shown)
VH: EVMLVESGGGLVKPGGSLKLSCAASRFTLSSYAMSWVRQTPEKRLEWVATISSGGSYTYYFDSVKGRFTISRDTAKNTLNLQMSSLRSEDTAMYYCARLYYGNALDYWGQGTSVTVSS
VL: B11 VL with S5T, M21V, S49P, M84V, D97N, M109T
notes: mouse hybridoma mAb
B17: 234B9D4 (antibody, V domains shown)
VH: EIQLQQSGPDLMKPGSSVKISCTASGYSFTSYYIHWVKQSHGKTLEWIGYIDPFNGGTRYNQKFEGKAALTVDKSSTTAYMHLTSLTSDDSAVYYCASLRFFTYWGQGTLVTVSA
VL: B11 VL with S5T, S22T, K36E, S49P, Y55S, W56R, E61Q, M84V, I99S, M109K
notes: mouse hybridoma mAb
B18: 253E4F7 (antibody, V domains shown)
VH: EIQLQQSGPELMKPGASVKMSCKASGYSFTSYYIHWVKQSHGKSLEWIGYIDPFNGGTRYNQKFEGKATLTVDKSSTTAYMHLSSLTSEDSTVYYCASLRFLAYWGQGTLVTVSA
VL: B11 VL with S5T, S22T, S49P, L52V, Y55S, W56R, E61Q, M84V, I99S, M109K
notes: mouse hybridoma mAb
B19: 273F3D4 (antibody, V domains shown)
VH: B11 VH
VL: B11 VL
notes: mouse hybridoma mAb
B20: 259B4D4 (antibody, V domains shown)
VH: EIQLQQSGPELMKPGASVRISCKASGYSFTSYYMHWMKQSHVKSLEWIGYIDPFNGNTRYNQKFKDKATLTVDKSSTTAYMHLSSLTSEDSAVYFCASLRFFAYWGQGTLVTVSA
VL: B11 VL with S5T, K24N, S49P, T59S, S83T, M84V, I99S, Y100F, M109R
notes: mouse hybridoma mAb
B21: 275B2G2 (antibody, V domains shown)
VH: B4 VH with S30R, S31D, V34M, V53I, S55G, F60Y, F74N, A75V, F80Y, S115T
VL: B2 VL with A9S, K16G, R24K
notes: mouse hybridoma mAb
B22: 266B11F7 (antibody, V domains shown)
VH: B11 VH with L4M, A28S, S35T, H58N, I64T, S68R, R70S, N73K, N83S, M104L
VL: B11 VL with S5T, S22R, S49P, I54V, I81V, M84V, Y100F, M109K
notes: mouse hybridoma mAb
B23: 268D7H9 (antibody, V domains shown)
VH: B13 VH with I77S
VL: B11 VL with V3A, S5T, S22N, S49P, M84V, V91I, I99Y, M109T
notes: mouse hybridoma mAb
B24: 267B2C5 (antibody, V domains shown)
VH: B11 VH with S19A, A28S, L82V, A96G
VL: B11 VL with S5T, M84V, A106G, M109T
notes: mouse hybridoma mAb
B25: 240A8E7 (antibody, V domains shown)
VH: B13 VH with G57D, I77S
VL: B11 VL with I2V, S5T, S22N, S49P, L52M, M84V, V91I, I99Y, L102F, M109K
notes: mouse hybridoma mAb
B26: 240F8G2 (antibody, V domains shown)
VH: B13 VH with I77S
VL: B11 VL with M4V, S5T, S22N, S49P, M84V, V91I, I99Y, M109K
notes: mouse hybridoma mAb
B27: 263E9F3 (antibody, V domains shown)
VH: B18 VH with L4V, M20I, K23R, A24S, H41R, N55S, T92A, L102F
VL: DIVMTQSPSSLTVTAGEKVTMTCKSSQSLLNSGNQENYLTWYQQKPGQPPELLISRASTRQSGVPDRFTGSGSGTDFTLTISSVQTEDLAVYYCQNDYSYPLTFGAGTKLELK
notes: mouse hybridoma mAb
B28: 237D2A4 (antibody, V domains shown)
VH: B11 VH with A28S, T31S, H58N, A62T, S68R, R70S, N73K, P98A, M104L
VL: B11 VL with S5T, S49P, M84V, I99S, Y100F, M109K
notes: mouse hybridoma mAb

Molecular target: T1, human Claudin18.2 (human)
T1 construct: also called CLDN18.2
Experiment: cell ELISA, Claudin18.2-expressing HEK293T cells
Description: To determine protein binding EC₅₀ by Cell ELISA, 96-well U-bottom microplates were pre-blocked with blocking buffer (5% MPBS, 1×PBS with 5% skim milk) overnight at 4° C. On the next day, the Claudin18.2-expressing HEK293T stable cell line was suspended at 1.5×10⁶ cells/ml in blocking buffer, added to the plate in 100 μl/well and incubated at room temperature for 1 hour.
Raw data were plotted with GraphPad Prism v6.02 software with four parameters, best-fit value program to analyze the EC₅₀.

Row | EC50 [nM] | Binder
1 | ~12.5 | B1
2 | 1.91 | B2
3 | 6.59 | B3
4 | ~0.403 | B4
5 | 0.982 | B5
6 | 0.396 | B6
7 | ~0.37 | B7
8 | 1.8 | B8
9 | 2.57 | B9
10 | 1.78 | B10
11 | 0.966 | B11
12 | 0.56 | B12
13 | 1.77 | B13
14 | 1.16 | B14
15 | 0.875 | B15
16 | 2.21 | B16
17 | 4.78 | B17
18 | 0.611 | B18
19 | 1.13 | B19
20 | ~0.378 | B20
21 | ~2.06 | B21
22 | ~0.397 | B22
23 | ~0.411 | B23
24 | 0.895 | B24
25 | 0.646 | B25
26 | 0.88 | B26
27 | 1.08 | B27
28 | 1.9 | B28
